Data as given in patent US20150196637A1.
Where two headings read alike, the source gives them in different places.

Assays:
[1] = target: IgG1 heavy chain with CH3 construct 2 (K392D, K409D) and common light chain (human) [IgG part: P01857]
[2] = target: IgG1 heavy chain with CH3 construct 2 (K392D, K409D) and common light chain (human) [IgG part: P01857]; experiment: native MS, transfection #11 of Table 24; fibrinogen VH on construct 1 with fibrinogen VH on construct 2
[3] = target: IgG1 heavy chain with CH3 construct 67 (K360D) and common light chain (human) [IgG part: P01857]
[4] = target: IgG1 heavy chain with CH3 construct 8 (Q347K) and common light chain (human) [IgG part: P01857]
[5] = target: IgG1 heavy chain with CH3 construct 61 (L351K) and common light chain (human) [IgG part: P01857]
[6] = target: IgG1 heavy chain with CH3 construct 64 (T366D) and common light chain (human) [IgG part: P01857]

Which % of the mixture (peak height) [1] does the source give for “IgG1 heavy chain with CH3 construct 1 (E356K, D399K) and common light chain (from UniProt P01857-1)” here?
Its % of the mixture (peak height) is 67%.

What about the % of the mixture (peak height) [2] of the same substance?
Its % of the mixture (peak height) is 61%.

Which results are given for “IgG1 heavy chain with CH3 construct 8 (Q347K) and common light chain (from UniProt P01857-1)”?
AC found (%) [3]: 41%; AA found (%) [4]: 34%

With “IgG1 heavy chain with CH3 construct 61 (L351K) and common light chain (from UniProt P01857-1)” as the substance, how does the AA found (%) [5] read?
Its AA found (%) is 30%.

What about the AC found (%) [6] of the same substance?
Its AC found (%) is 52%.
